From patent US20210244762A1 (AUTOLUS, published 2021) come the findings set out here.

This test deals with T1, Recombinant TGFbRII-Fc protein (R&D systems) (human, UniProt P37173 23-159).
T1 construct: Bought reagent; also called TGFβRII-Fc; TGFβRII-human Fc; not shown: Fc part; human Fc by the names 'TGFβRII-human Fc' / 'TGFbRII-hFc' and the anti-human capture kit; isotype and limits not
Description: SPR (Biacore 8K), TGFbRII-Fc captured by anti-human capture kit on CM5, VHH as analyte, 1:1 Langmuir fit, 25 °C. From the text:
The binding kinetics of these four dAbs for TGFβRII was then investigated using Biacore affinity analysis and the results are shown in Table 3 below.
Recombinant TGFbRII-Fc protein (R&D systems) was immobilised on individual flow cells on a Series S CM5 sensor chip (GE Healthcare) previously functionalised with anti-human capture kit, to a density of 150-200 RU using a Biacore 8K instrument. HBS-P⁺ buffer was used as running buffer is all experimental conditions. Recombinant purified VHH antibodies at known concentrations were used as the ‘analyte’ and injected over the respective flow cells with 150 s contact time and 600s dissociation at […] of flow rate with a constant temperature of 25° C. In each experiment, flow cell 1 was unmodified and used for reference subtraction. A ‘0 concentration’ sensorgram of buffer alone was used as a double reference subtraction to factor for drift. Data were fit to a 1:1 Langmuir binding model using local Rmax.
In general terms: In SPR one partner is held on a chip, and binding of the other changes the refractive index at the surface.

T1 sequence (P37173 23-159 limits assumed): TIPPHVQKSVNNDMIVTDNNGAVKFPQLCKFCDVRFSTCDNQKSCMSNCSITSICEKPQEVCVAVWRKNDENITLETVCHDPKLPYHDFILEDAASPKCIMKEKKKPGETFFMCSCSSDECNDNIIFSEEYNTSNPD

B1: anti-TGFβRII single domain antibody (dAb) clone H3 (VHH)
VHH: QVQLQQSGGGLVQAGGSLRLACAASGRSFSIYGITWFRQAPGKEREFVAAITGSGLTTNYADSVKGRFTISRDNAKNMVYLQLNSLKPDDTAVYYCAATRAYSGYYGENPTRYAYWGQGTQVTVS
notes: H3 is the one clone not 'related' to the other three; also called dAb H3; anti-TGFbRII VHH H3
For the molecule B1, the Kd was found to be 67.2 nM, the koff turned out to be 0.119 s⁻¹ and the kon was found to be 1.77e+06 M⁻¹ s⁻¹.

By Kd is commonly meant the free concentration of one partner at which half of the binding sites on the other are occupied at equilibrium, for simple one-to-one binding. A word on the koff: it is the rate constant with which the complex falls apart. A word on the kon: it is the second-order rate constant of association.
